For one substance, whole cell catalysis in E. coli (CotB3 with PdR/Pdx-W106E): formation of cyclooctat-9-en-5,7-diol from added cyclooctat-9-en-7-ol, GC-MS results are on record in publication PMC4877809.

This assay has as its target CotB3 (class I P450 hydroxylase of the cyclooctatin pathway) (Streptomyces melanosporofaciens MI614-43F2) (UniProt C9K1X6).
Sequence of UniProt C9K1X6 (C9K1X6 whole entry): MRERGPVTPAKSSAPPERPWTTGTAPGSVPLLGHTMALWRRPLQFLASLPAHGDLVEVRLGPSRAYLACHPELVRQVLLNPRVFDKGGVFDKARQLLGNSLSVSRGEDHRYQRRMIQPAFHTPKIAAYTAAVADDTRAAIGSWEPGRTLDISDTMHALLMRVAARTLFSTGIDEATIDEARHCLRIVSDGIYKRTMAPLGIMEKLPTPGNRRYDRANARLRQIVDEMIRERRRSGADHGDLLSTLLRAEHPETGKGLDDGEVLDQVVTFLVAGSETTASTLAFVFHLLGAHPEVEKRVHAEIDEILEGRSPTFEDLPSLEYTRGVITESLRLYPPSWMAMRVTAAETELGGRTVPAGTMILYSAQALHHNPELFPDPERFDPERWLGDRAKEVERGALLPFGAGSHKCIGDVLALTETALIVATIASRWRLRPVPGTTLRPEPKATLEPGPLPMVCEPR

“Pdx-W106E (putidaredoxin, ferredoxin of the Pseudomonas putida PdR·Pdx redox system, W106E mutant) (natural protein)” showed a whole cell catalysis in E. coli (CotB3 with PdR/Pdx-W106E): formation of cyclooctat-9-en-5,7-diol from added cyclooctat-9-en-7-ol, GC-MS of 100%.
